Results: publication PMC3115021, “Dynamics of Cdk1 Substrate Specificity during the Cell Cycle” (Molecular Cell, 2011)

Experiments:
Cln1-Cdk1 = Cln1-Cdk1 (Saccharomyces cerevisiae, UniProt P00546+P20437); assay: Peptide kinetics with the model substrate (data not shown); type: biochemical
Protocol: (§1) The four major cyclin-Cdk1 complexes used in our experiments seem sufficient for describing
(§2) the general dynamic changes of Cdk1 specificity during the cell cycle, as the rest of the cyclins,
(§3) Clb1 and Clb4 (Grandin and Reed, 1993) as well as Cln3 and Clb6 (Cross et al., 2002; Tyers et
(§4) al., 1993) are less abundant and therefore minor contributors to the total concentration of
(§5) activated Cdk1, and most likely would not yield significant changes to the general model. In
(§6) an intermediate KM (210 μM) for the model substrate (data not shown). However, due to poor
(§7) purification yields, this kinase was excluded from detailed analysis. Additionally, the other G1
(§8) towards the peptide substrate (KM > 1 mM, data not shown).
(§9) Our findings have raised an intriguing question of how cyclins can change the specificity
(§10) of the Cdk1 active site, so that its ability to bind and phosphorylate the consensus site motif is
(§11) altered. These cyclin-specific effects could be due to specific conformational changes induced by
(§12) cyclin in the Cdk1 molecule, resulting in altered accessibility and configuration of its active site.
(§13) of Swe1 to phosphorylate different cyclin-Cdk1 complexes at the active site-gating Y19 residue.
(§14) The other gradually changing feature, the relative differences in RXL-dependent docking
(§15) mechanisms among the B-type cyclin-Cdk1s, could also be due to different specific […]

Clb4-Cdk1 = target: T1, Clb4-Cdk1 (Saccharomyces cerevisiae, UniProt P00546+P24871); assay: as above; type: biochemical
T1 construct: made in house
Protocol: as §1, §2, §3, §4, §5, §6, §7, §8, §9, §10, §11, §12, §13, §14, §15

Clb2-Cdk1 [1] = target: T2, Clb2-Cdk1 (Saccharomyces cerevisiae, UniProt P00546+P24869); settings: higher specificity for mitotic Clb2-Cdk1 than S phase Clb5-Cdk1; ref Loog and Morgan, 2005; cited from earlier work
T2 construct: We purified the four cyclin-Cdk1 complexes from yeast; made in house; host or cells: S. cerevisiae strain DOM0077 (gal-CLB2-TAP, sic1 deleted); Cks1 from bacteria
T2 sequence (P00546 2-298 limits assumed): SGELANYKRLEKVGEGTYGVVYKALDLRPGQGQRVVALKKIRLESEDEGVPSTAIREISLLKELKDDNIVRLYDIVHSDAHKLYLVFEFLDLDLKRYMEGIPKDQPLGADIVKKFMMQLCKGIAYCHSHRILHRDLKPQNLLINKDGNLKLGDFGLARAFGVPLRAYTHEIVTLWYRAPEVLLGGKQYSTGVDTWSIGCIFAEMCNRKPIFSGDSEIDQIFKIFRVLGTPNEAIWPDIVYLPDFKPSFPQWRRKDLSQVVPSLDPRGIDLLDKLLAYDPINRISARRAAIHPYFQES
T2 sequence (P24869 2-491 partner limits assumed): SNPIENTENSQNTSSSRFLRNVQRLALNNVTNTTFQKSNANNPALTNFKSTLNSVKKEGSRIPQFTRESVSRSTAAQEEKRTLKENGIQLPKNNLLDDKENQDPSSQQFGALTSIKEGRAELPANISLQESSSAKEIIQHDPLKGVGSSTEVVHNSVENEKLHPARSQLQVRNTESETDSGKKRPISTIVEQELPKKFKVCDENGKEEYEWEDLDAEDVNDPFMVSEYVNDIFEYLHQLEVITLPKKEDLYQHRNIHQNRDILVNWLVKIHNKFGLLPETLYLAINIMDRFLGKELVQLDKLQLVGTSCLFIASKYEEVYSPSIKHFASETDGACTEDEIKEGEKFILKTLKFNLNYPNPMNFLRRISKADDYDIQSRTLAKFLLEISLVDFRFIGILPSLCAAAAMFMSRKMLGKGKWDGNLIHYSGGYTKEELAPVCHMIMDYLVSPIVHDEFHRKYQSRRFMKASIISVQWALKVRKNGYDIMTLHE
T2 sequence (P20486 whole entry partner): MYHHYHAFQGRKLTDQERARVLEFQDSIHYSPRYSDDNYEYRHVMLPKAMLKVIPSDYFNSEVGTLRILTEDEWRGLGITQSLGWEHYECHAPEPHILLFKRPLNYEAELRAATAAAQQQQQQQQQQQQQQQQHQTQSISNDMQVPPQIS
From the text: To study how different cyclins modulate the substrate specificity of Cdk1, we performed a quantitative analysis of yeast Cdk1 specificity in complex with each of four cyclins: the G1/S cyclin Cln2, the S phase triggering cyclin Clb5, the G2/M cyclin Clb3, and the mitotic cyclin Clb2. The cellular levels of these four cyclins peak in sequence over the course of the cell cycle (Figure 1A). We purified the four cyclin-Cdk1 complexes from yeast (Figure 1D) and analyzed their kinetic properties with a commonly used optimal model substrate for Cdk1, a peptide derived from the general substrate Histo ...

Clb3-Cdk1 = target: T3, Clb3-Cdk1 (Saccharomyces cerevisiae, UniProt P00546+P24870); assay: Quantitative phosphorylation assay of T33-Sic1ΔC constructs and recombinant substrates; type: biochemical; settings: Table S2; purified protein substrate; relative values, not divided by [S]
T3 construct: We purified the four cyclin-Cdk1 complexes from yeast; made in house; host or cells: S. cerevisiae strain DOM0957 (gal-CLB3-TAP, sic1 deleted); Cks1 from bacteria
T3 sequence (P00546 2-298 limits assumed): as the sequence (P00546 2-298 limits assumed) above
T3 sequence (P24870 whole entry partner): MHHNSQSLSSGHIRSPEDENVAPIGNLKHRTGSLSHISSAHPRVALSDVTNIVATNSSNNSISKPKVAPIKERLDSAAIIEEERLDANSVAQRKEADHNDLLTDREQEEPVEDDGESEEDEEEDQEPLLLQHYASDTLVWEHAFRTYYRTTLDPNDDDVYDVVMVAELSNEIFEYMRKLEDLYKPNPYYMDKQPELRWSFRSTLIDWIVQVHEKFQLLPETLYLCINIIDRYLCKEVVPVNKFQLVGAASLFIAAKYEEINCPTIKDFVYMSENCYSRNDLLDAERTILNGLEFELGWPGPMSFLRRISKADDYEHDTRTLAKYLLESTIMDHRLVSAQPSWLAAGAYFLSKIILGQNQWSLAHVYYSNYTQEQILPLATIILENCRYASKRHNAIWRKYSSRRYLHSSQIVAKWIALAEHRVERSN
T3 sequence (P20486 whole entry partner): as the sequence (P20486 whole entry partner) above

Clb5-Cdk1 = target: T4, Clb5-Cdk1 (Saccharomyces cerevisiae, UniProt P00546+P30283); assay: as above; type: biochemical; settings: Table S2; purified protein substrate; relative values, not divided by [S]
T4 construct: We purified the four cyclin-Cdk1 complexes from yeast; made in house; host or cells: S. cerevisiae strain DOM0076 (gal-CLB5-TAP, sic1 deleted); Cks1 from bacteria
T4 sequence (P00546 2-298 limits assumed): as the sequence (P00546 2-298 limits assumed) above
T4 sequence (P30283 whole entry partner): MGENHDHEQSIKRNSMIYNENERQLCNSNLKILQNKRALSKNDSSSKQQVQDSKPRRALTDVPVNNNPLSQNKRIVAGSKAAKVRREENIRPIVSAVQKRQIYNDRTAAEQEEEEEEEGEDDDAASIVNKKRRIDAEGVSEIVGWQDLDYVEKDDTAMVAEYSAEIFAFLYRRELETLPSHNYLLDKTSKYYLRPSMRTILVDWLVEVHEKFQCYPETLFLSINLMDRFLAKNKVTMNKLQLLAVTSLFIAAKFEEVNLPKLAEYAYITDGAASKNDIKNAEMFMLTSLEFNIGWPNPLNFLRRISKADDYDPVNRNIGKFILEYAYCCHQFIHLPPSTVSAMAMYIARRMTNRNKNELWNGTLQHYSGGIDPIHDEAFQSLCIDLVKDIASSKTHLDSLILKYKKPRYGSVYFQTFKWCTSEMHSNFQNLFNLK
T4 sequence (P20486 whole entry partner): as the sequence (P20486 whole entry partner) above

Clb2-Cdk1 [2] = target: T2, Clb2-Cdk1; assay: as above; type: biochemical; settings: Table S2; purified protein substrate; relative values, not divided by [S]
Cln2-Cdk1 = target: T5, Cln2-Cdk1 (Saccharomyces cerevisiae, UniProt P00546+P20438); assay: as above; type: biochemical; settings: Table S2; purified protein substrate; relative values, not divided by [S]
T5 construct: We purified the four cyclin-Cdk1 complexes from yeast; made in house; host or cells: S. cerevisiae strain DMY305 (galactose-induced); Cks1 from bacteria
T5 sequence (P00546 2-298 limits assumed): as the sequence (P00546 2-298 limits assumed) above
T5 sequence (P20438 whole entry partner): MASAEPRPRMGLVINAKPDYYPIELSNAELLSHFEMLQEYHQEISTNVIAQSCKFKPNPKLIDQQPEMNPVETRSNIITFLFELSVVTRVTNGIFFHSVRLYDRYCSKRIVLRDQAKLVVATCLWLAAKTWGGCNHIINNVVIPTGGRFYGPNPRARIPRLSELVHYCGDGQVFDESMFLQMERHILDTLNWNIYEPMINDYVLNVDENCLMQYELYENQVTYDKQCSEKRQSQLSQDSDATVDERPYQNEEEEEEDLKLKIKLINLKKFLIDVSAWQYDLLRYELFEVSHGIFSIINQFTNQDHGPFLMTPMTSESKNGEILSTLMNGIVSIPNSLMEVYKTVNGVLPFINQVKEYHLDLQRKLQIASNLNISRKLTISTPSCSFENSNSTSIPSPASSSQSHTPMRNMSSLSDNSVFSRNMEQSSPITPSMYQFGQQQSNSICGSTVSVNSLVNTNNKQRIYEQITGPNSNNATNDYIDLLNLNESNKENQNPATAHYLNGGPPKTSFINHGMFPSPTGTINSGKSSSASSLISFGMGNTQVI
T5 sequence (P20486 whole entry partner): as the sequence (P20486 whole entry partner) above

Clb2hpm-Cdk1 = target: T6, Clb2hpm-Cdk1 (Saccharomyces cerevisiae, UniProt P00546); assay: as above; type: biochemical; settings: Table S2; purified protein substrate; relative values, not divided by [S]
T6 construct: made in house; host or cells: S. cerevisiae strain DOM0964 (gal-CLB2hpm-TAP, sic1 deleted); Cks1 from bacteria
T6 sequence (P00546 2-298 limits assumed): as the sequence (P00546 2-298 limits assumed) above
Method in brief: (§16)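 Yeast cyclin-Cdk1 complexes (1–10 nM, TAP-purified) phosphorylated 6His-T33-Sic1ΔC (other S/T-P sites mutated to Ala-Ala) or recombinant substrates at 0.5–2 μM, below KM, with 32P-γ-ATP. Initial velocities (≤10% turnover) from two or more time points, SDS-PAGE stopped; relative kcat/KM from v0 ratios.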

Clb3hpm-Cdk1 = target: T7, Clb3hpm-Cdk1 (Saccharomyces cerevisiae, UniProt P00546+P24870); assay: as above; type: biochemical; settings: Table S2; purified protein substrate; relative values, not divided by [S]
T7 construct: made in house; host or cells: S. cerevisiae strain MK0168 (gal-CLB3hpm-TAP, sic1 deleted); Cks1 from bacteria
Method in brief: as §16

Clb5hpm-Cdk1 = target: T8, Clb5hpm-Cdk1 (Saccharomyces cerevisiae, UniProt P00546); assay: as above; type: biochemical; settings: Table S2; purified protein substrate; relative values, not divided by [S]
T8 construct: made in house; host or cells: S. cerevisiae strain DOM0963 (gal-CLB5hpm-TAP, sic1 deleted); Cks1 from bacteria
T8 sequence (P00546 2-298 limits assumed): as above
Method in brief: as §16

Chain of Cln1-Cdk1 (P00546 2-298 limits assumed): as above
Chain of Cln1-Cdk1 (P20437 whole entry partner): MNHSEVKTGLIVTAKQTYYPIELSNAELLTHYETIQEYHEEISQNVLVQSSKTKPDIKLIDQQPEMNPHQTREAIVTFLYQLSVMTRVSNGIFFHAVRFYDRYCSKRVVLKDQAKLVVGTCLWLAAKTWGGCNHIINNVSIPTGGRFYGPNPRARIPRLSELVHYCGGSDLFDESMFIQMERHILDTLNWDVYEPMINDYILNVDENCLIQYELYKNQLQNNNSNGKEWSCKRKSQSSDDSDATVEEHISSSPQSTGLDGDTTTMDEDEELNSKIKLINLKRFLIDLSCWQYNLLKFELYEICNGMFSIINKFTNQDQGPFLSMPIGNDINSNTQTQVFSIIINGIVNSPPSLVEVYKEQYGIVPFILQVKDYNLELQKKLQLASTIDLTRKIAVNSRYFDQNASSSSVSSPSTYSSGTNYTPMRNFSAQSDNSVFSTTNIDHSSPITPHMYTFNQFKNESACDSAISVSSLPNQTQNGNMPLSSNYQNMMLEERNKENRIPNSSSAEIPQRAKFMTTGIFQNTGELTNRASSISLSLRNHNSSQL
Chain of Cln1-Cdk1 (P20486 whole entry partner): as the sequence (P20486 whole entry partner) above

Row | Molecule | Km (Cln1-Cdk1) | Km (Clb4-Cdk1) | specificity for Clb2-Cdk1 as compared with Clb5-Cdk1 (Clb2-Cdk1 [1]) | kcat/KM, Clb3 (Clb3-Cdk1) | kcat/KM, Clb5 (Clb5-Cdk1) | kcat/KM, Clb2 (Clb2-Cdk1 [2]) | kcat/KM, Cln2 (Cln2-Cdk1) | kcat/KM, Clb2hpm (Clb2hpm-Cdk1) | kcat/KM, Clb3hpm (Clb3hpm-Cdk1) | kcat/KM, Clb5hpm (Clb5hpm-Cdk1)
1 | PKTPKKAKKL [optimal model substrate for Cdk1, a peptide derived from the general substrate Histone H1] | > 1 mM | 210 µM | about 20 fold | – | – | – | – | – | – | –
2 | FAR1: Cdk1 inhibitor Far1, tested as Cdk1 substrate (protein, UniProt P21268 1-830, looked up) Cyclin-dependent kinase …: MKTPTRVSFEKKIHTPPSGDRDAERSPPKKFLRGLSGKVFRKTPEFKKQQMPTFGYIEESQFTPNLGLMMSKRGNIPKPLNLSKPISPPPSLKKTAGSVASGFSKTGQLSALQSPVNITSSNKYNIKATNLTTSLLRESISDSTTMCDTLSDINLTVMDEDYRIDGDSYYEEDSPTFMISLERNIKKCNSQFSPKRYIGEKCLICEESISSTFTGEKVVESTCSHTSHYNCYLMLFETLYFQGKFPECKICGEVSKPKDKDIVPEMVSKLLTGAGAHDDGPSSNMQQQWIDLKTARSFTGEFPQFTPQEQLIRTADISCDGFRTPRLSNSNQFEAVSYLDSPFLNSPFVNKMATTDPFDLSDDEKLDCDDEIDESAAEVWFSKTGGEHVMVSVKFQEMRTSDDLGVLQDVNHVDHEELEEREKEWKKKIDQYIETNVDKDSEFGSLILFDKLMYSDDGEQWVDNNLVILFSKFLVLFDFEEMKILGKIPRDQFYQVIKFNEDVLLCSLKSTNIPEIYLRFNENCEKWLLPKWKYCLENSSLETLPLSEIVSTVKELSHVNIIGALGAPPDVISAQSHDSRLPWKRLHSDTPLKLIVCLNLSHADGELYRKRVLKSVHQILDGLNTDDLLGIVVVGRDGSGVVGPFGTFIGMINKNWDGWTTFLDNLEVVNPNVFRDEKQQYKVTLQTCERLASTSAYVDTDDHIATGYAKQILVLNGSDVVDIEHDQKLKKAFDQLSYHWRYEISQRRMTPLNASIKQFLEELHTKRYLDVTLRLPQATFEQVYLGDMAAGEQKTRLIMDEHPHSSLIEIEYFDLVKQQRIHQTLEVPNL | – | – | – | 0.031 relative units | 0.115 relative units | 0.029 relative units | 0.042 relative units | 0.033 relative units | 0.008 relative units | 0.003 relative units
3 | EXO84: purified yeast protein tested as Cdk1 substrate (protein, UniProt P38261 1-753, looked up) Exocyst complex component …: MVEFSLKKARNNWKHVKKSASSPAKQKTPPSPAKPKQKTKKNPYSDLKDPATSYTLPTINARERSRVATSMQRRLSIHNTNYAPPTLDYSMPLPDMPNMIVPNDNVDSSHNNSSFTTENESVSSKGPSNSLNLSTADLSLNDSSYNKVPARSAMRNTVNPSGSNDPFNNSTSLRKMLANPHFNAKDFVHDKLGNASAITIDKFTSNLTDLSIQVQEEVKLNINKSYNEIMTVNNDLNVAMLELKRVRANINDLNEVLDQCTKIAEKRLQLQDQIDQERQGNFNNVESHSNSPALLPPLKAGQNGNLMRRDRSSVLILEKFWDTELDQLFKNVEGAQKFINSTKGRHILMNSANWMELNTTTGKPLQMVQIFILNDLVLIADKSRDKQNDFIVSQCYPLKDVTVTQEEFSTKRLLFKFSNSNSSLYECRDADECSRLLDVIRKAKDDLCDIFHVEEENSKRIRESFRYLQSTQQTPGRENNRSPNKNKRRSMGGSITPGRNVTGAMDQYLLQNLTLSMHSRPRSRDMSSTAQRLKFLDEGVEEIDIELARLRFESAVETLLDIESQLEDLSERISDEELMLLNLISLKIEQRREAISSKLSQSILSSNEIVHLKSGTENMIKLGLPEQALDLFLQNRSNFIQDLILQIGSVDNPTNYLTQLAVIRFQTIKKTVEDFQDIFKELGAKISSILVDWCSDEVDNHFKLIDKQLLNDEMLSPGSIKSSRKQIDGLKAVGLDFVYKLDEFIKKNSDKIR | – | – | – | 0.031 relative units | 0.019 relative units | 0.074 relative units | 0.084 relative units | 0.062 relative units | 0.014 relative units | 0.006 relative units
4 | FIN1: spindle-stabilizing protein, tested as Cdk1 substrate (protein, UniProt Q03898 1-291, looked up) Filament protein FIN1: MSNKSNRRSLRDIGNTIGRNNIPSDKDNVFVRLSMSPLRTTSQKEFLKPPMRISPNKTDGMKHSIQVTPRRIMSPECLKGYVSKETQSLDRPQFKNSNKNVKIQNSDHITNIIFPTSPTKLTFSNENKIGGDGSLTRIRARFKNGLMSPERIQQQQQQHILPSDAKSNTDLCSNTELKDAPFENDLPRAKLKGKNLLVELKKEEEDVGNGIESLTKSNTKLNSMLANEGKIHKASFQKSVKFKLPDNIVTEETVELKEIKDLLLQMLRRQREIESRLSNIELQLTEIPKHK | – | – | – | 10.96 relative units | 23.02 relative units | 12.43 relative units | 1.800 relative units | 14.08 relative units | 7.488 relative units | 3.651 relative units
